# Results published in patent publication US20230366033A1, “METHODS FOR TREATING CANCERS WITH INHIBITORS TARGETING THE ROLE OF GRB2 IN DNA REPAIR” (Board of Regents, The University of Texas System, priority 2020, published 2023).
# How the values were obtained:
# [1] = biological target: GRB2 K109R mutant, bacterially expressed and purified (UniProt P62993); assay: MST, 100 nM Atto488-labelled K109R GRB2, peptide titrated
# [2] = biological target: GRB2-SH2 domain, purified, Atto488-labelled (UniProt P62993); assay: MST; 100 nM Atto488-labelled GRB2-SH2 domain, peptide titrated; pEGFR phosphopeptide, comparator; cited to a figure and Ahmed et al., 2015
# [3] = biological target: CBLL1 E3 ubiquitin ligase, endogenous, in HEK293T cells (UniProt Q75N03); assay: GRB2 immunoprecipitation-mass spectrometry in HEK293T cells (mean of three data sets) [panel G]
# HERC1 (human) = HERC1 (human) (UniProt Q15751); assay: as above
# Sequence of HERC1 (human) (Q15751 whole entry): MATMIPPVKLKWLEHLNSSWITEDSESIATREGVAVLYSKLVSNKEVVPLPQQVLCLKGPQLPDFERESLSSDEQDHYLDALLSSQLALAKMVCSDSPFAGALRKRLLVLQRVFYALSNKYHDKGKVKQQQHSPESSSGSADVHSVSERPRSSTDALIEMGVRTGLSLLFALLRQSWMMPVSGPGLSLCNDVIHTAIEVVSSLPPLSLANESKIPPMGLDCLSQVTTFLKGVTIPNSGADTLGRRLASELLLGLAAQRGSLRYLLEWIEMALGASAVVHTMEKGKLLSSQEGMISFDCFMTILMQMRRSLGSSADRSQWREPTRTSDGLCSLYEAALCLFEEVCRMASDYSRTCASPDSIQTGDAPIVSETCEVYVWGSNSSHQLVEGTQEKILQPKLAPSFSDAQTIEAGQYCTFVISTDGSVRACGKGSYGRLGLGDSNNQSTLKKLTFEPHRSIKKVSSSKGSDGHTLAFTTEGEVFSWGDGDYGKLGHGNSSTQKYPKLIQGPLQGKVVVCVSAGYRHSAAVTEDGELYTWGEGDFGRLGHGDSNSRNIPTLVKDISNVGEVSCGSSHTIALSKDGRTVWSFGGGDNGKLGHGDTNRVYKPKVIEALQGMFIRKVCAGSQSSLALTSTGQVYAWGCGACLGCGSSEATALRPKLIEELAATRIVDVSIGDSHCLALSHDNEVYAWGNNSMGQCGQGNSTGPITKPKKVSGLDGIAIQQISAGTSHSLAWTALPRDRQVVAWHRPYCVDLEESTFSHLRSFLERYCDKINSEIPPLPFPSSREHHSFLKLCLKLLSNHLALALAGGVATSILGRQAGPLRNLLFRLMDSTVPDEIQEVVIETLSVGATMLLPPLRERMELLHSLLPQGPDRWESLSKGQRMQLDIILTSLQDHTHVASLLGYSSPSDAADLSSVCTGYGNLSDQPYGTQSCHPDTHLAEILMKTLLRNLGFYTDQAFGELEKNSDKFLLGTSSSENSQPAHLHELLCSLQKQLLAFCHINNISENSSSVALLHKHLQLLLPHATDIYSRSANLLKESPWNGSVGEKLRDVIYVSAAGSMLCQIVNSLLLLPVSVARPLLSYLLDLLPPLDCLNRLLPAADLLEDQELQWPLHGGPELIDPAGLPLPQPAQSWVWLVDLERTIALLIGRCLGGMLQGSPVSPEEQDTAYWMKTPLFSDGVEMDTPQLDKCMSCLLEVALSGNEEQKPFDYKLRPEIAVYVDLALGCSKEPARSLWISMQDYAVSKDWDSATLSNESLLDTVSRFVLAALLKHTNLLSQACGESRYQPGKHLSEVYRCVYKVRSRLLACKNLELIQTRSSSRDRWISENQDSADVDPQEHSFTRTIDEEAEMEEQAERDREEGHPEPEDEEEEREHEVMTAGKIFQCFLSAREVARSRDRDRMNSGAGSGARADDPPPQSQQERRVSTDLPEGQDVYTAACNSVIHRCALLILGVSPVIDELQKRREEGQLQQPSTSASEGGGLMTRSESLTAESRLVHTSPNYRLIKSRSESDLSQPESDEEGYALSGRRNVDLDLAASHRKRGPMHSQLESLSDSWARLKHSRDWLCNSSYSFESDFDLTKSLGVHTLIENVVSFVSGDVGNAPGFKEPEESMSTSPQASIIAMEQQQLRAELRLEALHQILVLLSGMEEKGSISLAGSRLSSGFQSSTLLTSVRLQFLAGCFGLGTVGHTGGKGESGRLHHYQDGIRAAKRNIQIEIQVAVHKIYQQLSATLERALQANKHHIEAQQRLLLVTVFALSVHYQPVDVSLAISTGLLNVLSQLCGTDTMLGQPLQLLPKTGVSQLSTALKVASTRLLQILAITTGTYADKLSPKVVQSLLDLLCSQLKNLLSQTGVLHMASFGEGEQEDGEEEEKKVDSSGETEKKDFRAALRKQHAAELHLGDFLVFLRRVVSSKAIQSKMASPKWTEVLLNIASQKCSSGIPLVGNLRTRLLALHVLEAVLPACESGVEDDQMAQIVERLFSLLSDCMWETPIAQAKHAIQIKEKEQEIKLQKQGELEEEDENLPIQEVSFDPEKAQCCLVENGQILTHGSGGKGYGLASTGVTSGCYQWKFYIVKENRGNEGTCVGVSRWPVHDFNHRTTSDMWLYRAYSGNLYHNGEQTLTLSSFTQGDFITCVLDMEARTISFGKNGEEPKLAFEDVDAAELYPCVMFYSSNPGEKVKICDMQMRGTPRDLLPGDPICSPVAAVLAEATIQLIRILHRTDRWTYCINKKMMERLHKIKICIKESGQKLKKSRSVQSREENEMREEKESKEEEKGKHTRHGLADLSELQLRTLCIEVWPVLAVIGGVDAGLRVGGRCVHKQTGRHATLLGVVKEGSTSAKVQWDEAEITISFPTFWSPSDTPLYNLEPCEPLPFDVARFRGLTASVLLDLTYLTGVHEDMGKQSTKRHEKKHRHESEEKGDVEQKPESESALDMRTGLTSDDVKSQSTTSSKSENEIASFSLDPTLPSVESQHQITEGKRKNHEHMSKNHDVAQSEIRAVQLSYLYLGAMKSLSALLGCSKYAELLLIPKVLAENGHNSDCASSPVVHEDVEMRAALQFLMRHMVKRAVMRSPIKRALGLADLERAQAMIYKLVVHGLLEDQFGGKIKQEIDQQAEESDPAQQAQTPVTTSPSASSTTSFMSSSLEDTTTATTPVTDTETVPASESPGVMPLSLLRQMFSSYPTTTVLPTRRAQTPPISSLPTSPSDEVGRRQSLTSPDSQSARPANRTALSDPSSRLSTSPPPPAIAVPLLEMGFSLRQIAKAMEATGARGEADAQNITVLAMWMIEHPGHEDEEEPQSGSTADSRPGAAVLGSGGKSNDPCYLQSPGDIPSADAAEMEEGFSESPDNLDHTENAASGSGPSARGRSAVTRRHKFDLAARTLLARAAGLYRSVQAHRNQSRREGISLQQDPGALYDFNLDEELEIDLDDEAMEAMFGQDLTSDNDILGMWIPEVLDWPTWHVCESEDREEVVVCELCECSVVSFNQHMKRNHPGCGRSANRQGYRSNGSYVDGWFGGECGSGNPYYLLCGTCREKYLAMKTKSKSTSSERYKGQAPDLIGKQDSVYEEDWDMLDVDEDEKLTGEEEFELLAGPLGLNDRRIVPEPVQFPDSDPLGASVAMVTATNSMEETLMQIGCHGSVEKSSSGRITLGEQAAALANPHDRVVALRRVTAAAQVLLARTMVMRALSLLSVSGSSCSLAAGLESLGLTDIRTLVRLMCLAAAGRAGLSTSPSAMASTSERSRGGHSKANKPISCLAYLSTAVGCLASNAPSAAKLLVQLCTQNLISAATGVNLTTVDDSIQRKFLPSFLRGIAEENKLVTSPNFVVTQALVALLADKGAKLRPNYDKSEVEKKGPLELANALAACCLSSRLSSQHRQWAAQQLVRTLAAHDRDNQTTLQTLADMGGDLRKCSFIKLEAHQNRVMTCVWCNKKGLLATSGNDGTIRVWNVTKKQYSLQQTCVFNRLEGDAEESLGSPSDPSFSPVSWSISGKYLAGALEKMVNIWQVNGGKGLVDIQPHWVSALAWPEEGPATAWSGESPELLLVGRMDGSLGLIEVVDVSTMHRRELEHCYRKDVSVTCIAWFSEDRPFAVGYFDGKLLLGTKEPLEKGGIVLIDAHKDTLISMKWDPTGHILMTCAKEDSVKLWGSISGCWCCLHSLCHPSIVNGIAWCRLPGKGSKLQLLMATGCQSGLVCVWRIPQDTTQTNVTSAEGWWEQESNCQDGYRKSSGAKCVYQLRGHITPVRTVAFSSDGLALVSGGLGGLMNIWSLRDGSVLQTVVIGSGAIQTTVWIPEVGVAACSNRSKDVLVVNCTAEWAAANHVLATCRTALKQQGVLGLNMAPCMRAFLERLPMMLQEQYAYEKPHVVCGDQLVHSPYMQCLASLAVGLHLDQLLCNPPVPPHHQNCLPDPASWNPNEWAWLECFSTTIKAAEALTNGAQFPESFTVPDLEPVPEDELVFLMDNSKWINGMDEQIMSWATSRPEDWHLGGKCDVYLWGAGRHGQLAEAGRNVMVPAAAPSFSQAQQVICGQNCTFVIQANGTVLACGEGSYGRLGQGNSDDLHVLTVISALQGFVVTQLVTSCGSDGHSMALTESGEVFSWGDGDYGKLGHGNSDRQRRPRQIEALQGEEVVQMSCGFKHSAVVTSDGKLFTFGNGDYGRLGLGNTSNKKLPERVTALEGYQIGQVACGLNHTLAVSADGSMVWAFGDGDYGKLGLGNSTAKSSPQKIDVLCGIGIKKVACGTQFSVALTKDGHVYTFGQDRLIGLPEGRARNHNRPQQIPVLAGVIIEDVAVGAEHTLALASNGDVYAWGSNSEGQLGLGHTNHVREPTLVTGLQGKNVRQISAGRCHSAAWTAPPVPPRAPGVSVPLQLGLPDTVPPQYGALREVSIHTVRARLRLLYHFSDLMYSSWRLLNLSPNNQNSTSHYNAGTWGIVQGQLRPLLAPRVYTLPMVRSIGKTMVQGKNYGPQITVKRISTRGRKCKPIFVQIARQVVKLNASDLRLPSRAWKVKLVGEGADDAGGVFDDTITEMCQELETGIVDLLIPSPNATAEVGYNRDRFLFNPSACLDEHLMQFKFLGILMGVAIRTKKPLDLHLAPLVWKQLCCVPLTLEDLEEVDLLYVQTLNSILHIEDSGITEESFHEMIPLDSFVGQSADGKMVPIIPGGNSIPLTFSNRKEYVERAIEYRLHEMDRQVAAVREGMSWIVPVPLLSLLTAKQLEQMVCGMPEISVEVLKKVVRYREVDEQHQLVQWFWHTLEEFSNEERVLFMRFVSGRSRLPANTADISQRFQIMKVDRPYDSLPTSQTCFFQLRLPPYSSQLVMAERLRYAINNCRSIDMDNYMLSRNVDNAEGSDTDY
# [4] = biological target: RING2 E3 ubiquitin ligase, endogenous, in HEK293T cells (UniProt Q99496); assay: as above
# Sequence of RING2 E3 ubiquitin ligase, endogenous, in HEK293T cells (Q99496 2-336 limits assumed): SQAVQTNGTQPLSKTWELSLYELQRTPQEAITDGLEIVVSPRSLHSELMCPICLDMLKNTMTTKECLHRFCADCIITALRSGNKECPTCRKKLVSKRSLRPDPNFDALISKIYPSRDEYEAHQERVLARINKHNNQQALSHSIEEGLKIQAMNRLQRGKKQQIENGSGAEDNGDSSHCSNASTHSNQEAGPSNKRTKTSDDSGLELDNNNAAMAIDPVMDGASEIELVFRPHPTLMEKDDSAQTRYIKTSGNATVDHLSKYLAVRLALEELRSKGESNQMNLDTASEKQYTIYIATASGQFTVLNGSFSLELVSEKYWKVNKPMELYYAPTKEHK
# [5] = biological target: Histone H2AX, endogenous, in HEK293T cell extracts (UniProt P16104); assay: Strep-Tactin purification of Strep-GRB2 from HEK293T nuclear extracts, mass spectrometry (mean of three data sets) [panel A]
Kd [1] [µM],Kd [2] [µM],Coverage(%) [3] [%],Peptides [3] [peptides],Coverage(%) (HERC1 (human)),Peptides (HERC1 (human)) [peptides],Coverage(%) [4] [%],Peptides [4] [peptides],Coverage(%) [5] [%],Peptides [5] [peptides],Substance
2.6,7.2,,,,,,,,,Phosphorylated EGFR synthetic peptide FLPVPE(pY)INQSVPKR
,,3,1,0,1,15,4,71,16,Strep-tagged wild-type GRB2 expressed in cells (HEK293T; reconstituted GRB2-KO cells) (from UniProt P62993 1-217)
